Reference: FireProtDB (doi:10.1002/pro.5560030904)
Several values for one entry are separate records, joined by “and”; a condition that tells them apart may be missing. Equal entries are not always repeated.

Conditions: Oryctolagus cuniculus; pH 7.4; Thermal; DSC; sodium phosphate 10 mM; transition: 4; reversible: yes; whole UniProt chain shown

B1: Fructose-bisphosphate aldolase A wild type, P00883 (protein)
chain: MPHSHPALTPEQKKELSDIAHRIVAPGKGILAADESTGSIAKRLQSIGTENTEENRRFYRQLLLTADDRVNPCIGGVILFHETLYQKADDGRPFPQVIKSKGGVVGIKVDKGVVPLAGTNGETTTQGLDGLSERCAQYKKDGADFAKWRCVLKIGEHTPSALAIMENANVLARYASICQQNGIVPIVEPEILPDGDHDLKRCQYVTEKVLAAVYKALSDHHIYLEGTLLKPNMVTPGHACTQKYSHEEIAMATVTALRRTVPPAVTGVTFLSGGQSEEEASINLNAINKCPLLKPWALTFSYGRALQASALKAWGGKKENLKAAQEEYVKRALANSLACQGKYTPSGQAGAAASESLFISNHAY
unfolding enthalpy (calorimetric): 61 kcal/mol and 34 kcal/mol
